Test results: US9951306B2, “Catalase in growth media” (EUCODIS BIOSCIENCE GMBH, priority 2012, dated 2018)

Key:
[1] = tested on: Bacillus subtilis ATCC 6633; test: Agar diffusion test: inhibition by hydrogen peroxide on TSA-LT agar plates with additives; assay type: cell-based; settings: 10 μl on paper disc; for Inhibition on gamma-irradiated agar plates: gamma-irradiated 20.5 kGy; for Inhibition on agar plates: not irradiated
[2] = tested on: Bacillus subtilis ATCC 6633; test: Growth promotion test: colonies on TSA-LT agar plates treated with hydrogen peroxide; assay type: cell-based; settings: for Colonies on agar: no catalase, hydrogen peroxide as in Example 3; for Colonies on gamma-irradiated agar / Colonies on agar plates: 300 μl 1% hydrogen peroxide (100 ppm in medium); for Colonies on gamma-irradiated agar: gamma-irradiated 20.5 kGy; for Colonies on agar plates: not irradiated
[3] = 8000 international units of catalase per plate; cited from earlier work
[4] = sodium pyruvate 2.00 g/l together with sodium thiosulfate 0.05 g/l, 2% hydrogen peroxide
[5] = sodium pyruvate 2.00 g/l together with sodium thiosulfate 0.05 g/l, 5% hydrogen peroxide
[6] = sodium pyruvate 2.00 g/l together with sodium thiosulfate 0.05 g/l, 8% hydrogen peroxide
[7] = sodium pyruvate 2.00 g/l together with sodium thiosulfate 0.05 g/l, 10% hydrogen peroxide
[8] = sodium pyruvate 2.00 g/l together with sodium thiosulfate 0.05 g/l
[9] = 80 U/plate, 2% hydrogen peroxide
[10] = 80 U/plate, 5% hydrogen peroxide
[11] = 80 U/plate, 8% hydrogen peroxide
[12] = 80 U/plate, 10% hydrogen peroxide
[13] = 150 U/plate, 2% hydrogen peroxide
[14] = 150 U/plate, 5% hydrogen peroxide
[15] = 150 U/plate, 8% hydrogen peroxide
[16] = 150 U/plate, 10% hydrogen peroxide
[17] = 300 U/plate, 2% hydrogen peroxide
[18] = 300 U/plate, 5% hydrogen peroxide
[19] = 300 U/plate, 8% hydrogen peroxide
[20] = 300 U/plate, 10% hydrogen peroxide

For `CC(=O)C(=O)[O-].[Na+]` [Sodium pyruvate, reference compound], the “Inhibition on gamma-irradiated agar plates” value [1, 4] was 0 mm, the “Inhibition on agar plates” value [1, 4] was 0 mm and the “Inhibition on gamma-irradiated agar plates” value [1, 5] was 1 mm. For the same molecule, the “Inhibition on agar plates” value [1, 5] was 1 mm, the “Inhibition on gamma-irradiated agar plates” value [1, 6] was 2 mm and the “Inhibition on agar plates” value [1, 6] was 2 mm. For the same molecule, the “Inhibition on gamma-irradiated agar plates” value [1, 7] was 3 mm, the “Inhibition on agar plates” value [1, 7] was 2.5 mm and the “growth in agar plates with hydrogen peroxide” value ([2]; 0.2 g/l sodium pyruvate and 0.005 g/l sodium thiosulfate without catalase) was “did not support growth”. For the same molecule, the Colonies on agar ([2]; sodium pyruvate 0.20 g/l with sodium thiosulfate 0.005 g/l) was 0 CFU, the “Colonies on gamma-irradiated agar” value [2, 8] was 229 CFU and the “Colonies on agar plates” value [2, 8] was 161 CFU. The Colonies on agar ([2]; sodium pyruvate 2.00 g/l with sodium thiosulfate 0.05 g/l) was 125 CFU.

For catalase, the recovery [3] is given as 60%.

B1: Catalase from bovine liver: Catalase prepared from commercial product C9322 (Sigma), dissolved in 0.1 M potassium phosphate pH 7.0; comparator (protein, UniProt P00432 2-527, looked up)
Catalase: ADNRDPASDQMKHWKEQRAAQKPDVLTTGGGNPVGDKLNSLTVGPRGPLLVQDVVFTDEMAHFDRERIPERVVHAKGAGAFGYFEVTHDITRYSKAKVFEHIGKRTPIAVRFSTVAGESGSADTVRDPRGFAVKFYTEDGNWDLVGNNTPIFFIRDALLFPSFIHSQKRNPQTHLKDPDMVWDFWSLRPESLHQVSFLFSDRGIPDGHRHMNGYGSHTFKLVNANGEAVYCKFHYKTDQGIKNLSVEDAARLAHEDPDYGLRDLFNAIATGNYPSWTLYIQVMTFSEAEIFPFNPFDLTKVWPHGDYPLIPVGKLVLNRNPVNYFAEVEQLAFDPSNMPPGIEPSPDKMLQGRLFAYPDTHRHRLGPNYLQIPVNCPYRARVANYQRDGPMCMMDNQGGAPNYYPNSFSAPEHQPSALEHRTHFSGDVQRFNSANDDNVTQVRTFYLKVLNEEQRKRLCENIAGHLKDAQLFIQKKAVKNFSDVHPEYGSRIQALLDKYNEEKPKNAVHTYVQHGSHLSAREKANL
For B1, the “Inhibition on gamma-irradiated agar plates” value [1, 9] was 3.5 mm, the “Inhibition on agar plates” value [1, 9] was 1 mm and the “Inhibition on gamma-irradiated agar plates” value [1, 10] was 7 mm. For the same molecule, the “Inhibition on agar plates” value [1, 10] was 5 mm, the “Inhibition on gamma-irradiated agar plates” value [1, 11] was 8 mm and the “Inhibition on agar plates” value [1, 11] was 6 mm. For the same molecule, the “Inhibition on gamma-irradiated agar plates” value [1, 12] was 8.5 mm, the “Inhibition on agar plates” value [1, 12] was 7 mm and the “Inhibition on gamma-irradiated agar plates” value [1, 13] was 2 mm. The “Inhibition on agar plates” value [1, 13] was 0.5 mm, the “Inhibition on gamma-irradiated agar plates” value [1, 14] was 6 mm and the “Inhibition on agar plates” value [1, 14] was 4 mm. The “Inhibition on gamma-irradiated agar plates” value [1, 15] was 7.5 mm, the “Inhibition on agar plates” value [1, 15] was 5 mm and the “Inhibition on gamma-irradiated agar plates” value [1, 16] was 8 mm. The “Inhibition on agar plates” value [1, 16] was 6 mm, the “Inhibition on gamma-irradiated agar plates” value [1, 17] was 1.5 mm and the “Inhibition on agar plates” value [1, 17] was 0 mm. The “Inhibition on gamma-irradiated agar plates” value [1, 18] was 5.5 mm, the “Inhibition on agar plates” value [1, 18] was 2 mm and the “Inhibition on gamma-irradiated agar plates” value [1, 19] was 6.5 mm. For the same molecule, the “Inhibition on agar plates” value [1, 19] was 4 mm, the “Inhibition on gamma-irradiated agar plates” value [1, 20] was 7.5 mm and the “Inhibition on agar plates” value [1, 20] was 4.5 mm. The “Colonies on gamma-irradiated agar” value ([2]; 80 U/plate) was 0 CFU, the “Colonies on agar plates” value ([2]; 80 U/plate) was 0 CFU and the “Colonies on gamma-irradiated agar” value ([2]; 150 U/plate) was 0 CFU. For the same molecule, the “Colonies on agar plates” value ([2]; 150 U/plate) was 0 CFU, the “Colonies on gamma-irradiated agar” value ([2]; 300 U/plate) was 0 CFU and the “Colonies on agar plates” value ([2]; 300 U/plate) was 0 CFU. For the same molecule, the “recovery of the applied colony forming units” value ([2]; highest tested concentration of 300 U/plate, not irradiated medium) was 0%.
